Assay results as given in US20230104113.

Tested on: NF-kB (human)
Test: cell_activity
Details: lipid transfection of 1 pmol

| Sequence | activity (A549 MTT day 2 (89% day 1), with doxorubicin 79% day 1, 73% day 2) [% viability] | activity (5' monophosphate, A549 MTT day 2 (101% day 1), with doxorubicin 78% day 2) [% viability] |
| --- | --- | --- |
| AAAAAAAAAAGAUCUUGAAACUGUUUUAAGGUUGGCCGAUCUUAAAAAA [NF-kB aptamer circular RNA] | 86 |  |
| AAAAAAAAAAGAUCUUGAAACUGUUUUAAGGUUGGCCGAUCUUAAAAAA [NF-kB aptamer linear RNA] |  | 97 |
